Values belong to the molecule of their own block, whether it stands above or below them.
What was measured:
GFP-hGS15 (human) [1] = biological target: GFP-hGS15 (human) (UniProt Q9NYM9); experiment: co-IP; HEK293T cells with lobe B-myc and a GFP-tagged partner fractionated into P15, P100 and S100; membrane pellets solubilised with Triton X-100 and incubated with GBP-beads; blotted with anti-Myc and anti-GFP
GFP-hGS15 (human) [2] = biological target: GFP-hGS15 (human) (UniProt Q9NYM9); experiment: co-IP; GFP IP on GBP (GFP binding protein) beads from lysates of transfected HEK293T cells (50 mM Tris pH 7.4, 150 mM NaCl, 1% Triton X-100), 2 h at room temperature; blotted for COG8, Myc and GFP
[3] = biological target: T1, whole COG complex isolated from HEK cells (GFP-mCOG3 + hCOG1/2/4-3Myc + hCOG6/8-3Myc + hCOG5/7-3Myc) (human | mouse, UniProt Q8WTW3 1-980; Q14746 1-738; Q8CI04 1-820; Q9H9E3 1-785; Q9UP83 1-860; Q9Y2V7 …); experiment: pull-down; GST-tagged GS15 proteins held on Glutathione Sepharose 4B; whole COG complex or lobe B isolated from HEK cells added in 25 mM HEPES-KOH pH 7.4, 25 mM KCl, 2.5 mM magnesium acetate, 1 mM DTT, 0.05% Tween-20, 1 hour at room temperature; Myc blot; details: both partners purified
T1 construct: Human COG1-3Myc in MultiLabel vector; Human COG2Streptag-3Myc in MultiLabel vector; Mouse COG3 in pEGFP-C1; Human COG4-3Myc in MultiLabel vector; Human COG5-3Myc in MultiLabel vector; Human COG6-3Myc in MultiLabel vector; Human COG7-3Myc in MultiLabel vector; Human COG8-3Myc in MultiLabel vector; Elution from TALON by imidazole probably releases His6-GBP together with the GFP-tagged complex; also …

[4] = biological target: T2, lobe B complex isolated from HEK cells (GFP-hCOG5 + hCOG6/8-3Myc + hCOG7-3Myc) (human, UniProt Q9UP83 1-860; Q9Y2V7 1-657; P83436 1-770; Q96MW5 1-612); experiment: as above; details: both partners purified
T2 construct: Human COG5 in pEGFP-C1; Human COG6-3Myc in MultiLabel vector; Human COG7 in pCMV-3Myc; Human COG8-3Myc in MultiLabel vector; Elution from TALON by imidazole probably releases His6-GBP together with the GFP-tagged complex; also called lobe B sub-complex; purified lobe B; source: HEK293T, transfected; isolated by Sephacryl S-300 HR gel filtration and TALON-GBP beads, eluted with 350 mM imidazole, …
T2 sequence (Q9UP83 whole entry, chain 1 of 4): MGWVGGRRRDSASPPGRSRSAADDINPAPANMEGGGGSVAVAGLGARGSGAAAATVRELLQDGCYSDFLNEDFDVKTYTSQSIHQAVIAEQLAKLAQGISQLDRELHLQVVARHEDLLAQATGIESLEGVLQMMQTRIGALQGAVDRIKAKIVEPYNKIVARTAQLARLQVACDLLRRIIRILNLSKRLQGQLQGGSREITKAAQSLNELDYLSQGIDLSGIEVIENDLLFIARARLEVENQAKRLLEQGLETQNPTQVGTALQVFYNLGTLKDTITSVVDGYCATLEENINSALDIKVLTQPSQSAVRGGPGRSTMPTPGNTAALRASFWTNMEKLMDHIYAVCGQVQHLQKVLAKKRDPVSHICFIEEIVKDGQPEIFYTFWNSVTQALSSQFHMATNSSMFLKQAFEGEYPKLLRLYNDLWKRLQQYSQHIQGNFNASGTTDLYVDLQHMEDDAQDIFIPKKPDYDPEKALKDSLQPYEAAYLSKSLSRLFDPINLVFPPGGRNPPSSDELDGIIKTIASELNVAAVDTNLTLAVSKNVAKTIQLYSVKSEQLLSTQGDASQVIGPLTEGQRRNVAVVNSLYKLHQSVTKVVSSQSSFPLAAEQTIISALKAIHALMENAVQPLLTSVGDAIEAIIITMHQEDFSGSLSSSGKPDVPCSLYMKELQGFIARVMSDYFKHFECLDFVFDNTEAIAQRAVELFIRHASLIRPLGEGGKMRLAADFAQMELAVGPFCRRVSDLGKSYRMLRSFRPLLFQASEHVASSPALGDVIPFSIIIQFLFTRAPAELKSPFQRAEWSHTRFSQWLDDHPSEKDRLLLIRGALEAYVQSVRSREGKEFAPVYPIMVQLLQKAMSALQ
T2 sequence (Q9Y2V7 whole entry, chain 2 of 4): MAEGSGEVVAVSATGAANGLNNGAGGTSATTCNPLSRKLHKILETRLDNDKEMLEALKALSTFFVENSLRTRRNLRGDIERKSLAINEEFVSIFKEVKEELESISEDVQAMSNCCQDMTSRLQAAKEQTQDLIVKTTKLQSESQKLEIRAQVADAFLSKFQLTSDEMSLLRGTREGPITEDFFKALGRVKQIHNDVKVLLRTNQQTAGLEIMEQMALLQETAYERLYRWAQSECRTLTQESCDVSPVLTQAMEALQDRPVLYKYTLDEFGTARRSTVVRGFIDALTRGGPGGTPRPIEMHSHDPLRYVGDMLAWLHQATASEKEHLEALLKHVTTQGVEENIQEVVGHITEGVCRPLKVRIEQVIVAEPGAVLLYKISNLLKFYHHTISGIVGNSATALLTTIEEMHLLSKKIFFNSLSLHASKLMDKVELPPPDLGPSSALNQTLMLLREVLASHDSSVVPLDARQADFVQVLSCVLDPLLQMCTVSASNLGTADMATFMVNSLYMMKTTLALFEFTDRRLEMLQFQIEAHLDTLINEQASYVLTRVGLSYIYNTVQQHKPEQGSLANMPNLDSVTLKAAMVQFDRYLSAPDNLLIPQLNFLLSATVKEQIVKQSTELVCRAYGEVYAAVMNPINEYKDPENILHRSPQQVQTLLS
T2 sequence (P83436 whole entry, chain 3 of 4): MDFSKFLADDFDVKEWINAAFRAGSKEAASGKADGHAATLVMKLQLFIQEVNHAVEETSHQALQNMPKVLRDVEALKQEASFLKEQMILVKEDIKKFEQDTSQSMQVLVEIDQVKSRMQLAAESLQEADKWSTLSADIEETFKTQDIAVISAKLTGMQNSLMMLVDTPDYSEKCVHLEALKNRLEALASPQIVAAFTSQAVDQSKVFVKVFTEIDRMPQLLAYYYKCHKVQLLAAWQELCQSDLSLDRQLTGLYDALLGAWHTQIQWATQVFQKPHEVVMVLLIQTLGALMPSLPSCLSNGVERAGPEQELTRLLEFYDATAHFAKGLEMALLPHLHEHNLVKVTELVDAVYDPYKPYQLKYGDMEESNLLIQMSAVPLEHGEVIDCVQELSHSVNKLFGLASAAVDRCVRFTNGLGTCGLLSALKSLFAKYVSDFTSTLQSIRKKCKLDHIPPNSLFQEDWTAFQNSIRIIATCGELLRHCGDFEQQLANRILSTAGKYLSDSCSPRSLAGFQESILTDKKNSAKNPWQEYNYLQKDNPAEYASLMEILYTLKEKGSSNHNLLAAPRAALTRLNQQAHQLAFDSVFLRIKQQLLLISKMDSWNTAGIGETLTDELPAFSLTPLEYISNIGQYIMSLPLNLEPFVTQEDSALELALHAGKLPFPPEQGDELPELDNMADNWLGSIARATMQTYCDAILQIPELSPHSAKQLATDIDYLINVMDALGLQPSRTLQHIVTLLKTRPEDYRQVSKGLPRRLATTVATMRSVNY
T2 sequence (Q96MW5 whole entry, chain 4 of 4): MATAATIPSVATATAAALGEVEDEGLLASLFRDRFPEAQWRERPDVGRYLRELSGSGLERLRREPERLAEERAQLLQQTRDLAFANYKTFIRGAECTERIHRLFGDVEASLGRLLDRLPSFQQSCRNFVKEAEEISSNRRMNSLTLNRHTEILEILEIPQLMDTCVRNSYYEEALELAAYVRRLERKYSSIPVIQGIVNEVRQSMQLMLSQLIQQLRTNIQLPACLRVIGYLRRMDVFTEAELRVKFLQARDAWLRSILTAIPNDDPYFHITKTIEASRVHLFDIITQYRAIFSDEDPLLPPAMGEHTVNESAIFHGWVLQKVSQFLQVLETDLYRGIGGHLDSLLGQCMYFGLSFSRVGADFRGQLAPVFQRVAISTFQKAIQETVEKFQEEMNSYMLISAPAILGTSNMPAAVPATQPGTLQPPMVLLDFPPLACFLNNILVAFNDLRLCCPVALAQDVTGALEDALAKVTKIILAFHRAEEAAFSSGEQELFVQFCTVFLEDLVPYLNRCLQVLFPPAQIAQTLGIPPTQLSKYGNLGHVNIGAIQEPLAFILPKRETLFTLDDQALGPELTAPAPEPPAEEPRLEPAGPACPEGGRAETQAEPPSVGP

percent pull-down (GFP-hGS15 (human) [1]): < 12%
Molecule: lobe B sub-complex, myc-tagged (hCOG5-3Myc, hCOG6-3Myc, hCOG7-3Myc, hCOG8-3Myc), Q9UP83 1-860; Q9Y2V7 1-657; P83436 1-770; Q96MW5 1-612

co-IP efficiency (percent of input) (GFP-hGS15 (human) [2]): 0.3%
Molecule: COG1-HA-GS-COG8 hybrid (hCOG1-HA-GS-TEV-hCOG8-3Myc)

binding result [3]: binds
binding result [4]: binds
B1: His-hGS15-GST, full-length (FL) GS15 cytoplasmic domain (aa 1–86) (domain or fragment, human, UniProt Q9NYM9 1-86, looked up)
chain: MADWARAQSPGAVEEILDRENKRMADSLASKVTRLKSLALDIDRDAEDQNRYLDGMDSDFTSMTSLLTGSVKRFSTMARSGQDNRK
notes: Human GS15 cytoplasmic domain (aa 1–86) in pET28a; also called GST-tagged full-length (FL) GS15 cytoplasmic domain; not shown: GST, C-terminal, kept

— PMC4935880, “COG lobe B sub-complex engages v-SNARE GS15 and functions via regulated interaction with lobe A sub-complex” (Scientific Reports, 2016)
